According to publication PMC2921712:

Legend:
microtubules = experiment: co-sedimentation
[1] = target: Oregon Green 488-labeled GMPCPP microtubules; experiment: single-molecule TIRF microscopy
[2] = target: Xenopus CENP-E^1-473 tagged with TagRFP-T (CENP-E^1-473-RFP) (Xenopus laevis); experiment: single-molecule TIRF microscopy with photobleaching steps

Chain of Oregon Green 488-labeled GMPCPP microtubules (P02550 whole entry, chain 1 of 2): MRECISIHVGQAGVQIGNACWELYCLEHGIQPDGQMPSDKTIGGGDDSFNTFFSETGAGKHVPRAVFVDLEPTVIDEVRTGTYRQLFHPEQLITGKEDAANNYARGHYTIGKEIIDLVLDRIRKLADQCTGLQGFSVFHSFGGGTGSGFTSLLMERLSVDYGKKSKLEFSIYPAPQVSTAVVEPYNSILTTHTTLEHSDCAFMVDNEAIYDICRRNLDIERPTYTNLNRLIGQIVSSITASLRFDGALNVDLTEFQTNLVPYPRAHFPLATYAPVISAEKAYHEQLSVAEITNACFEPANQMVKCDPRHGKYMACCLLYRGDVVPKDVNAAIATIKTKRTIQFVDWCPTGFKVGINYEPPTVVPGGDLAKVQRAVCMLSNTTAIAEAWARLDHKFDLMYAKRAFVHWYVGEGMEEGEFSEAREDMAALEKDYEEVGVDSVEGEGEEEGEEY
Chain of Oregon Green 488-labeled GMPCPP microtubules (P02554 whole entry, chain 2 of 2, further chain): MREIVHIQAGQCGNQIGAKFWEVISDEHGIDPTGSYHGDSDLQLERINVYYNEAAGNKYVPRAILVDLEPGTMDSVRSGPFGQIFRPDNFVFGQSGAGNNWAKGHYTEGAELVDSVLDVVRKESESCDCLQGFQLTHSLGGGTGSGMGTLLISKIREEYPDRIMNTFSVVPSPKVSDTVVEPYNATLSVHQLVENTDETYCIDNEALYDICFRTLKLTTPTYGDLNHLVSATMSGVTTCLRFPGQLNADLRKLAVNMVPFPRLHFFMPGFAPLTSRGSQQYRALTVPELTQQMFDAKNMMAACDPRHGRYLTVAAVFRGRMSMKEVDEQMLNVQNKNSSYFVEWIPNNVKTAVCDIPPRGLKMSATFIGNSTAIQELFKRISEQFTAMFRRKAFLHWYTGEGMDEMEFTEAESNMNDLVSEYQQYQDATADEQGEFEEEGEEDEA
Chain of microtubules (P02550 whole entry, chain 1 of 2, the tested form may be a part): as the sequence (P02550 whole entry, chain 1 of 2) above
Chain of microtubules (P02554 whole entry, chain 2 of 2, further chain, the tested form may be a part): as the sequence (P02554 whole entry, chain 2 of 2, further chain) above

Row | Substance | Kd (microtubules) [µM] | mean duration of binding (t) [1] [s] | time bound at the microtubule end [1] [s] | stoichiometry N [2]
1 | T424A Xenopus CENP-E^1-473 incubated with Aurora A (domain or fragment) | 3.4 |  |  | 
2 | Xenopus CENP-E motor fragment CENP-E^1-473 (domain or fragment) | 2 |  |  | 
3 | Xenopus CENP-E^1-473 phosphorylated by Aurora A (domain or fragment) | 3 |  |  | 
4 | Xenopus CENP-E^1-473 tagged with TagRFP-T (CENP-E^1-473-RFP) (domain or fragment) |  | 17 | 5.8 | 2
5 | Xenopus CENP-E^1-473-RFP phosphorylated by Aurora A (domain or fragment) |  | 12 |  | 
